# Values of other authors as cited in US20230301999A1, “METHODS OF TREATING GOUT” (Horizon Therapeutics USA, Inc., priority 2020, published 2023).
# Read-outs that look alike come from different tables or passages of the source.
# Columns and labels:
# subjects with gout = conditions: Phase 2, 30-min administration in the majority
# [1] = 2 hemodialysis sessions; pre- and post-dialyzer samples
# [2] = tested on: patients receiving pegloticase
# [3] = single IV infusions of 0.5 mg to 12 mg; 23 patients with symptomatic gout
# [4] = tested on: subjects with refractory gout; conditions: doses of 4 to 12 mg; from 11.1±0.6 mg/dL
# [5] = tested on: patients with refractory chronic gout; conditions: bi-weekly or every 4 weeks for up to 30 months
# vacuolated cells = conditions: no associated clinical manifestations
# [6] = rat; during 7 days after injection
# [7] = tested on: hyperuricemic patients with symptomatic gout
# [8] = tested on: patients with refractory chronic gout; conditions: Phase 2 program
# patients with gout = conditions: patients treated with allopurinol
molecule,measurement,setting,value
pegloticase,anaphylaxis,subjects with gout,no subjects experienced anaphylaxis
same,subjects experiencing an IR,"subjects with gout; no MTX, majority without IR prophylaxis",44%
same,removal by dialysis,[1],not removed by the dialysis process
same,patients with antibody titer exceeding 1:2430 maintaining response,"[2]; 7 of 65, another study",10.8%
same,patients with titers exceeding 1:2430 developing IRs,[2]; 31 of 52,60%
same,patients never having antibody titer above 1:2430 maintaining response,"[2]; 58/65, another study",89.2%
same,participants with high titers developing IR,[2]; second study,60%
same,maximum serum concentrations vs dose,[3],increased in proportion to the dose administered
same,"pUAc after fall, mean±SD",[4],1.0±0.5 mg/dL
same,long-term safety,[5],No new safety signals were observed
same,finding in chronic toxicology studies,vacuolated cells,dose-dependent increase in vacuolated cells
same,dose excreted in the urine,[6],Approximately 70%
same,stability diluted in infusion bags,2° C. to 8° C.,4 h
same,stability diluted in infusion bags,room temperature (20° C. to 25° C.),4 h
same,subjects with infusion reactions (IRs),"[7]; 8 mg every 2 weeks, Phase 3, 120-min infusion, IR prophylaxis, no pre-infusion uric acid monitoring",26%
same,subjects with infusion-related reactions,"[7]; 8 mg every 4 weeks, Phase 3",40%
same,patients maintaining therapeutic response,"[7]; 6 months, pegloticase alone, previously reported",42%
same,patients with IRs in whom loss of response (SUA≥6 mg/dL) preceded the first IR,[7]; 20/21 patients,95%
same,subjects with anaphylaxis,"[7]; Phase 3, 120-min infusion, IR prophylaxis",5%
same,IR rate,[7]; clinical practice/studies with a uric acid monitoring protocol,about 8%
same,dose-response plateau dose,[8],12 mg
same,minimally effective dose,[8],4 mg
same,safe and optimally effective dose,[8],8 mg
Oc1ncnc2[nH]ncc12 [allopurinol],patients developing allergic reactions,patients with gout,Approximately 2%
